We go through 1 substance from patent US5427937.

The target in the test is purified human coagulation factor Xa (human) (UniProt P00742).

The substance “crude soluble hookworm protein extract (Ancylostoma caninum adult worms) (pool or library)” displayed a factor Xa activity (chromogenic assay, hydrolysis of Chromozym X) of 50 % reduction.
